The values that follow come from paper PMC9754112 (mAbs, 2022).

Test [1] deals with recombinant human CTLA-4-His-tag protein (Homo sapiens (Human).) (UniProt P16410). Briefly: SPR.
Test [2] has as its target recombinant human CTLA-4-His-tag protein (Homo sapiens (Human)., UniProt P16410). Briefly: SPR.

recombinant human CTLA-4-His-tag protein, sequence (P16410 36-161): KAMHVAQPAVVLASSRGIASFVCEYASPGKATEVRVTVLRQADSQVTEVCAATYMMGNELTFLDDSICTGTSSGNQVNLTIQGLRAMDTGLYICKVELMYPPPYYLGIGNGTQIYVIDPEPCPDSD

One may read the Kd as a measure of binding affinity in units of concentration. For ipilimumab (antibody), the Kd in test [1] is 16.1 nM.

B1: JS007, humanized IgG1 anti-CTLA-4 monoclonal antibody (antibody, V domains shown)
VH: QVQLQESGPGLVKPSQTLSLTCTVSAYSITSGYYWNWIRQHPGKGLEWIGYIGYDGSNNYNPSLKSRVTISRDTSKNQFSLKLSSVTAADTAVYYCARDYYSGYFDSWGQGTTLTVSS
VL: DIQMTQSPSSLSASVGDRVTITCRASQNVGTYVAWYQQKPGKVPKPLIYSTSYRYSGVPSRFSGSGSGTDFTLTISSLQPEDVATYFCHQYDTYPLTFGAGTKLELK
With B1, the dissociation constant Kd in test [2] is 0.21 nM.
